# In patent US10393755B2, “Compositions and methods for treating eye infections and disease” (UNIVERSITY OF VIRGINIA PATENT FOUNDATION, priority 2014, dated 2019):
# What was measured:
# [1] = test system: HCE-T cells; assay: FOXO3 translocation assay in IFNG/TNF stressed HCE-T cells; assay type: cell-based, human; details: dry eye tears 1:100, 10 nM, 15 min
# Protocol: For FOXO3 translocation assays, HCE-T cells were grown in triplicate to subconfluence (˜50%) on coverslips in α-MEM (5.54 mm glucose), sensitized overnight in IFNG (100 units/ml; Roche Applied Science), and treated for 15 min with normal or dry eye tears diluted 1:100 in α-MEM together with TNF (50 ng/ml; PeproTech, Rocky Hill, N.J.) without or with 10 nm lacritin or C-25. Cells were washed, fixed with 4% paraformaldehyde, and immunostained for FOXO3 (1:200; Millipore, Billerica, Mass.) followed by goat anti-rabbit secondary antibody and visualization on a Zeiss LSM 700 microscope.
# [2] = test system: primary human corneal epithelial cells; assay: FOXO3 translocation in INFG/TNF stressed primary human corneal epithelial cells; assay type: cell-based
# [3] = test system: Aire(−/−) dry eye mice; assay: Topical treatment of Aire(-/-) dry eye mice; assay type: in vivo, mouse
# Protocol: Autoimmune regulator (Aire)-deficient [Aire^−/−] mice spontaneously develop dry eye without need for dry chambers or scopolamine Aire^−/− mice were dosed three times daily for three weeks with 10 μl of 50 μg/mllacritin, or in controls with PBS. Several different assays monitored the consequences. […] Topical lacritin reduced CD4+T cell infiltration into lacrimal glands measured as the number of lymphocytic foci/per millimeter square area of lacrimal gland tissue (3.68±0.65 per mm sq lacritin vs. 9.7+1.5 per mm sq PBS; P=0.01), but had no apparent effect on the pattern or distribution of CD4+T cells into either the corneal stroma (14.6±1.6 lacritin vs 12.4±2.1 PBS) or the limbus (29.6±2.5 lacritin vs 34.6±2.9 PBS.
# To assess ocular surface mucosal damage from dry eye, eyes of Aire(−/−) dry eye mice were topically administered lissamine green that increasingly stained PBS-treated eyes with time (See FIG. 4C). […] Thus, topical lacritin, and its bioactive fragments thereof, diminished lacrimal gland inflammation and corneal staining in dry eye, and promoted ocular surface differentiation. Importantly, suppression of inflammation and promotion of tearing was achieved without direct contact with inflammatory cells nor with tear producing cells.
# [4] = test system: corneal sensory nerves; assay: Corneal sensory nerve activity monitored at the trigeminal ganglion; assay type: in vivo, rat
# From the text: Topical lacritin stimulates tearing even without physical access to lacrimal acinar cells. The rapidity of the response is in keeping with corneal sensory nerve activation. Individual corneal sensory nerve activity was monitored at the level of the trigeminal ganglion in rats via previously described methods. Emerging from these studies was the observation that topical lacritin is neural stimulatory. […] The ‘dry response’ refers to neural activation as a consequence of drying of the cornea, which is thought to be a critical TRPM8-mediated stimulus for tearing, while the ‘wet response’ occurs when the agonist is present at the corneal nerve terminals. […] Apparent inhibition of the action potentials by lacritin during wet cornea was small because the TRPM8 activity during wet cornea is low to begin with, while it reaches optimal level during dry cornea when dynamic cooling of the ocular surface is taking place. Lacritin may also increase TRPM8 neural density.
# [5] = assay type: in vitro ADME, human
# Protocol: A limitation of most synthetic peptide drugs is their protease sensitivity. […] Retropepsin would inactivate LACRIPEP, while cathepsin K would have no effect. However neither protease is found in normal human tears. Nonetheless, tears are rich in other proteases. We therefore incubated LACRIPEP in normal human tears at 37° C. for 2, 4, 6 and 16 hr. For immunoblotting, we first removed all endogenous lacritin by immunodepletion. […] (FIG. 6B).
# [6] = test system: E. coli; assay: Lacritin inhibition (colony count) assay, E. coli; assay type: cell-based; details: 2 uM, mid-log E. coli
# Protocol: (§1) Bacterial Growth, SYTOX Green Assays, and on Column Cleavage—E. coli (ATCC (Manassas Va.) catalog no. 10536), S. epidermidis (ATCC catalog no. 12228), and P. aeruginosa (ATCC catalog no. 9027) were grown to mid-log phase in 50 ml of Luria-Bertani (LB) medium and washed three times in phosphate buffer containing 10 mM NaCl (pH 7.2; PB—NaCl) with centrifugation. Pellets were resuspended in 1 ml of PB—NaCl.
# (§2) For lacritin inhibition assays, 50 ul of bacterial pellets each diluted 1:100 in PB—NaCl were incubated for 1.5 h (37° C.) with 100 ul of lacritin, lacritin truncations, or synthetic peptides at a final concentration of 0.1-6 uM. Mixtures were diluted 1:10 in PB—NaCl before plating 100 ul in quadruplicate on LB agar plates for overnight growth at 37° C. Colonies were manually counted. In other experiments, mid-log E. coli was treated at 37° C. for 0, 1, 2, or 3 h with 2 uM lacritin or lacritin truncations or with ampicillin (5 uM) or tetracycline (2 uM). After each treatment, 100 ul was centrifuged, resuspended in 1 ml of PB—NaCl, and plated (100 ul) onto LB agar for overnight growth (37° C.) and colony counting.
# [7] = test system: P. aeruginosa; assay: Lacritin inhibition (colony count) assay, P. aeruginosa; assay type: cell-based; details: 2 uM, mid-log P. aeruginosa
# Protocol: as §1, §2
# [8] = test system: S. epidermidis; assay: Lacritin inhibition (colony count) assay, S. epidermidis; assay type: cell-based; details: 2 uM, mid-log S. epidermidis
# Protocol: as §1, §2
# [9] = test system: bacteria; assay: Lacritin inhibition (colony count) assay, bacterium not given; assay type: cell-based; details: whole protein
# Protocol: as §1, §2
# [10] = test system: basal tearing; details: Sumadre et al. 2011, cited from earlier work
molecule,measurement,setting,value
"lacritin: 12.3 kDa secreted tear glycoprotein; recombinant, generated in Escherichia coli (protein, listed as Homo sapiens) MKFTTLLFLAAVAGALVYAEDASSDSTGADPAQEAGTSKPNEEISGPAEPASPPETTTTAQETSAAAVQGTAKVTSSRQELNPLKSIVEKSILLTEQALAKAGKGMHGGVPGGKQFIENGSEFAQKLLKKFSLLKPWA",FOXO3 translocation to the cytoplasm by dry eye tears spiked with the substance,[1],translocated FOXO3 to the cytoplasm
same,FOXO3 translocation,[2],translocated FOXO3
same,Keratin 10 levels (skin epidermal marker),[3],diminished levels
same,Keratin 12 expression (corneal marker),[3],80.1±4.8%
same,Lissamine green staining,[3],−0.417±0.06
same,Lymphocytic foci per millimeter square area of lacrimal gland tissue (CD4+T cell infiltration),"[3]; three times daily for three weeks, 10 μl of 50 μg/ml",3.68±0.65 per mm sq
same,CD4+T cells in corneal stroma,[3]; three weeks,14.6±1.6
same,CD4+T cells in limbus,[3]; three weeks,29.6±2.5
same,Corneal neuron activity immediately after application,"[4]; 10 μM, from ˜12 before",~8 spikes/s
same,Wet response after 1 hr and washout,"[4]; 10 μM, from ˜12 before",~16 spikes/s
same,Dry response after 1 hr and washout,"[4]; 10 μM, from ˜20 before",~23 spikes/s
same,Neural dry response,[4]; topical,enhanced
same,Cross-linking of monomer spiked into immunodepleted tears,[5],"formed dimers, trimers and tetramers"
same,Appearance of colonies,[6],no effect on the appearance of colonies
same,Appearance of colonies,[7],no effect on the appearance of colonies
same,Appearance of colonies,[8],no effect on the appearance of colonies
same,Bactericidal activity,[9],does not have bactericidal activity
same,Tolerability of multiple doses per day,[10],well tolerated
same,Increase of basal tearing over vehicle,[10]; acute,30%
